Data published in paper PMC10901373, “An unusual dual sugar-binding lectin domain controls the substrate specificity of a mucin-type O-glycosyltransferase” (Science Advances, 2024).
Where a chain is given by its changes, count along the chain named. No end group written: not given here. *: point of attachment. αGalNAc = CC(=O)N[C@@H]1[C@@H](O)[C@@H](O)[C@@H](CO)O[C@@H]1*

Experiments:
[1] = target: T1, human GalNAc-T1 D444A (α repeat variant) (human) (UniProt Q10472)
T1 sequence: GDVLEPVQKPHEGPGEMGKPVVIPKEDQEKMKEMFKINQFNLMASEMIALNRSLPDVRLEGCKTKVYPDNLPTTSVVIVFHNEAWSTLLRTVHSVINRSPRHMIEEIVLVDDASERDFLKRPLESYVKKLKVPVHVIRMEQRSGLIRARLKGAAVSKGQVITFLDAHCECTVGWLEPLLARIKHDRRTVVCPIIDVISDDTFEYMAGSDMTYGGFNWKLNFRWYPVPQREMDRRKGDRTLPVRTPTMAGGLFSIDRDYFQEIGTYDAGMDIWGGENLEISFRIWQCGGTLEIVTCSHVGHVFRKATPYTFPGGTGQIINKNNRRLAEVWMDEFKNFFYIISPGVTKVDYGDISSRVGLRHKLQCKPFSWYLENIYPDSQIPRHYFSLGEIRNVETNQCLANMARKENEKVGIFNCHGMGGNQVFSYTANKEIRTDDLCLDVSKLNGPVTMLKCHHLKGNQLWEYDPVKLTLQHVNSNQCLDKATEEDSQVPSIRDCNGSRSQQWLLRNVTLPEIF

[2] = target: T2, mouse GalNAc-T1 (pKN55-His6-TEV-mGalNAc-T1-∆56) (mouse, UniProt O08912 57-559); experiment: crystal structure; mouse GalNAc-T1 (5 mg/ml) combined with 4 mM Muc5AC-13, 5 mM UDP and 5 mM MnCl2; hanging drops, 20% PEG-3350, 0.1 M MES pH 6.5; 2.3 Å; settings: both partners purified
T2 construct: mouse polypeptide N-acetylgalactosaminyltransferase 1 (GalNAc-T1), construct printed as mGalNAc-T1-∆56 (read as lacking the first 56 residues); 98% identical to human GalNAc-T1; The construct has a TEV site after the His6 tag; The start at residue 57 is read from the name ∆56; also called N-acetylgalactosaminyl-transferase 1; source: SD200 16/60 gel filtration before crystallization
T2 sequence (looked up): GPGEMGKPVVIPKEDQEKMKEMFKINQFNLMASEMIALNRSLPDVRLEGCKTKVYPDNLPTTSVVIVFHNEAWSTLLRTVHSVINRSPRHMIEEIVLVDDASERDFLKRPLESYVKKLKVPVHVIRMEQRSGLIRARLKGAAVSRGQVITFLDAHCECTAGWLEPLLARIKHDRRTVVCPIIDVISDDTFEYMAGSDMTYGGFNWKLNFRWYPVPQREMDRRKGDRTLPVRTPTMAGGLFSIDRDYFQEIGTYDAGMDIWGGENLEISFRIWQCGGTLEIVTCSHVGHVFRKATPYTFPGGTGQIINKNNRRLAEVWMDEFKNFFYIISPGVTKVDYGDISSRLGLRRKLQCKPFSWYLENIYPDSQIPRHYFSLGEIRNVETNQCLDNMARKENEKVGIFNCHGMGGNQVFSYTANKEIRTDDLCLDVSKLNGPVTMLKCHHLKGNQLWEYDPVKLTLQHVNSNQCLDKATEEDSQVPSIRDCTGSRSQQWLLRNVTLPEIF

[3] = target: T3, human GalNAc-T1 D484A (β repeat variant) (human) (UniProt Q10472)
T3 sequence: T1 sequence with A400D, D440A

## GAT(αGalNAc)PAPVPAGAGTPAP [Muc5AC-A3 glycopeptide (GAT3^GalNAc…13PAP)]
[1]
  KM (UDP-Glo), fold increase compared to GalNAc-T1^WT: 10 fold
  kcat/KM (UDP-Glo), fold reduction compared to GalNAc-T1^WT: 16 fold

B1: Muc5AC-13 glycopeptide (GTT3PSPVPTTSTT13^GalNAcSAP) (peptide)
peptide: GTTPSPVPTTSTT(αGalNAc)SAP
notes: Muc5AC mucin repeat peptide, 16 residues; numbers count on: the peptide; source: synthetic peptide (Anaspec)
[2]
  binding result: binds

## GATPAPVPAGAGT(αGalNAc)PAP [Muc5AC-A13 glycopeptide (GAT3…13^GalNAcPAP)]
[3]
  KM (UDP-Glo), fold increase compared to GalNAc-T1^WT: 20 fold
  kcat/KM (UDP-Glo), fold decrease compared to GalNAc-T1^WT: 29 fold
